{
  "source": "paper PMC4997359",
  "about": "(Scientific Reports, 2016)",
  "molecules": {"B1": {"name": "linker histone H5 from chicken erythrocyte chromatin (natural protein, UniProt P02259 1-190, looked up)", "chain": "MTESLVLSPAPAKPKRVKASRRSASHPTYSEMIAAAIRAEKSRGGSSRQSIQKYIKSHYKVGHNADLQIKLSIRRLLAAGVLKQTKGVGASGSFRLAKSDKAKRSPGKKKKAVRRSTSPKKAARPRKARSPAKKPKATARKARKKSRASPKKAKKPKTVKAKSRKASKAKKVKRSKPRAKSGARKSPKKK", "notes": "histone H5, chicken erythrocytes; Unlabelled"}},
  "key": {"[1]": {"target": "H2A–H2BT112C-Alexa 488 dimer (UniProt P06897)", "experiment": "other fluorescence titration; labelled H2A–H2BT112C-Alexa 488 (0.1–10 nM) titrated with increasing NP (pentamer); 150 mM NaCl, 20 mM Tris-HCl, pH 7.6, 1 mM DTT, 0.1 mg/ml BSA; apparent Kd; ligand-depleted model with 5 sites per NP pentamer"}, "[2]": {"target": "H2A–H2BT112C-Alexa 488 dimer (UniProt P06897)", "experiment": "other fluorescence titration; saturation stoichiometry: labelled histone dimers at 10 times the apparent Kd titrated with NP; molar ratio at the intersection of the linear phase with the plateau; 150 mM NaCl, 20 mM Tris-HCl, pH 7.6, 1 mM DTT, 0.1 mg/ml BSA"}, "[3]": {"target": "H3C110E-H4T71C-Alexa 488 (predominantly dimeric H3-H4 variant)", "experiment": "other fluorescence titration; labelled H3-H4 (H3C110E-H4T71C or H3C110A-H4T71C, Alexa 488; 0.1–10 nM) titrated with increasing NP (pentamer); 150 mM NaCl, 20 mM Tris-HCl, pH 7.6, 1 mM DTT, 0.1 mg/ml BSA; apparent Kd; ligand-depleted model with 2 sites per NP pentamer"}, "[4]": {"target": "cross-linked H3C110AK115C-H4T71C-Alexa 488 tetramer", "experiment": "other fluorescence titration; saturation stoichiometry: cross-linked H3C110AK115C-H4T71C-Alexa 488 at 10 times the apparent Kd titrated with NP; 150 mM NaCl, 20 mM Tris-HCl, pH 7.6, 1 mM DTT, 1% glycerol, 0.05% Tween 20"}, "[5]": {"target": "cross-linked H3C110AK115C-H4T71C-Alexa 488 tetramer", "experiment": "other fluorescence titration; cross-linked H3C110AK115C-H4T71C-Alexa 488 titrated with increasing NP (pentamer); 150 mM NaCl, 20 mM Tris-HCl, pH 7.6, 1 mM DTT, 1% glycerol, 0.05% Tween 20; apparent Kd; ligand-depleted model, 1/1 NP pentamer/histone tetramer"}, "[6]": {"target": "H3C110E-H4T71C-Alexa 488 (predominantly dimeric H3-H4 variant)", "experiment": "other fluorescence titration; saturation stoichiometry: labelled histone dimers at 10 times the apparent Kd titrated with NP; molar ratio at the intersection of the linear phase with the plateau; 150 mM NaCl, 20 mM Tris-HCl, pH 7.6, 1 mM DTT, 0.1 mg/ml BSA"}, "[7]": {"target": "egg nucleoplasmin (eNP), native NP from Xenopus laevis eggs (X. laevis) (UniProt P05221)", "experiment": "other fluorescence titration; competition: preformed NP/H2A–H2BT112C-Alexa 488 complexes (eNP 0.1 nM/histone 1 nM; rNP 0.5 nM/histone 5 nM) titrated with unlabelled H1 or H5; EC50 converted by the Cheng-Prusoff equation; apparent Kd"}, "[8]": {"target": "full-length recombinant nucleoplasmin (rNP) (X. laevis) (UniProt P05221)", "experiment": "other fluorescence titration; competition: preformed NP/H2A–H2BT112C-Alexa 488 complexes (eNP 0.1 nM/histone 1 nM; rNP 0.5 nM/histone 5 nM) titrated with unlabelled H1 or H5; EC50 converted by the Cheng-Prusoff equation; apparent Kd"}, "[9]": {"target": "T1, full-length recombinant nucleoplasmin (rNP) (X. laevis, UniProt P05221 1-200)", "T1 construct": "nucleoplasmin (NPM2), Xenopus laevis, full length recombinant, non-phosphorylated; also called recombinant NP", "experiment": "other fluorescence titration; competition: preformed NP/H2A–H2BT112C-Alexa 488 complexes (eNP 0.1 nM/histone 1 nM; rNP 0.5 nM/histone 5 nM) titrated with unlabelled H1 or H5; EC50 converted by the Cheng-Prusoff equation; apparent Kd", "conditions": "both partners purified"}, "[10]": {"target": "T2, egg nucleoplasmin (eNP), native NP from Xenopus laevis eggs (X. laevis, UniProt P05221 1-200, natural post-translational modifications, in particular phosphorylation (hyperphosphorylated); sites not printed in the text (circles in Figure 1A))", "T2 construct": "nucleoplasmin (NPM2), Xenopus laevis, 22 kDa subunit, residues 1-200 (core 1-120, tail 121-200); Homopentamer; also called NPM2; natural NP", "experiment": "other fluorescence titration; competition: preformed NP/H2A–H2BT112C-Alexa 488 complexes (eNP 0.1 nM/histone 1 nM; rNP 0.5 nM/histone 5 nM) titrated with unlabelled H1 or H5; EC50 converted by the Cheng-Prusoff equation; apparent Kd", "conditions": "both partners purified"}},
  "data": [
    {"molecule": "oocyte nucleoplasmin (oNP), NP isolated from X. laevis oocytes (from UniProt P05221 1-200) (natural protein)", "values": [
      {"measurement": "Kd", "setting": "[1]", "result": 0.11, "unit": "nM"},
      {"measurement": "stoichiometry N (H2A–H2B dimers per NP pentamer)", "setting": "[2]", "result": 3},
      {"measurement": "Kd", "setting": "[3]", "result": 0.09, "unit": "nM"}
    ]},
    {"molecule": "rNPΔ150–200, recombinant nucleoplasmin lacking the last 50 residues (from UniProt P05221 1-149) (domain or fragment)", "values": [
      {"measurement": "Kd", "setting": "[1]", "result": 0.12, "unit": "nM"},
      {"measurement": "stoichiometry N (H2A–H2B dimers per NP pentamer)", "setting": "[2]", "result": 5},
      {"measurement": "Kd", "setting": "[3]", "result": 0.05, "unit": "nM"}
    ]},
    {"molecule": "egg nucleoplasmin (eNP), native NP from Xenopus laevis eggs (from UniProt P05221 1-200) (natural protein)", "values": [
      {"measurement": "Kd", "setting": "[1]", "result": 0.06, "unit": "nM"},
      {"measurement": "stoichiometry N (cross-linked tetramer per NP pentamer)", "setting": "[4]", "result": 1},
      {"measurement": "Kd", "setting": "[5]", "result": 1.1, "unit": "nM"},
      {"measurement": "stoichiometry N (H2A–H2B dimers per NP pentamer)", "setting": "[2]", "result": 5},
      {"measurement": "stoichiometry N (H3-H4 dimers per NP pentamer)", "setting": "[6]", "result": 2},
      {"measurement": "Kd", "setting": "[3]", "result": 0.05, "unit": "nM"}
    ]},
    {"molecule": "full-length recombinant nucleoplasmin (rNP) (from UniProt P05221 1-200) (natural protein)", "values": [
      {"measurement": "Kd", "setting": "[1]", "result": 7, "unit": "nM"},
      {"measurement": "stoichiometry N (cross-linked tetramer per NP pentamer)", "setting": "[4]", "result": 1},
      {"measurement": "Kd", "setting": "[5]", "result": 2.1, "unit": "nM"},
      {"measurement": "stoichiometry N (H2A–H2B dimers per NP pentamer)", "setting": "[2]", "result": 2},
      {"measurement": "Kd", "setting": "[3]", "result": 3, "unit": "nM"}
    ]},
    {"molecule": "rNPΔ120–200, recombinant nucleoplasmin core lacking the whole C-terminal domain (from UniProt P05221 1-119) (domain or fragment)", "values": [
      {"measurement": "Kd", "setting": "[1]", "result": 11, "unit": "nM"},
      {"measurement": "Kd", "setting": "[3]", "result": 16000, "unit": "nM"}
    ]},
    {"molecule": "linker histone H1 from chicken erythrocyte chromatin (from UniProt P09987 1-218) (natural protein)", "values": [
      {"measurement": "Kd", "setting": "[7]", "result": 0.07, "unit": "nM"},
      {"measurement": "Kd", "setting": "[8]", "result": 1.7, "unit": "nM"}
    ]},
    {"molecule": "B1", "values": [
      {"measurement": "Kd", "setting": "[9]", "result": "0.7 ± 0.2", "unit": "nM"},
      {"measurement": "Kd", "setting": "[10]", "result": "0.03 ± 0.006", "unit": "nM"}
    ]}
  ]
}
